This data set concerns Escherichia coli TOP10. The data set can be described thus: shrunken log2 fold change of peptide-encoding DNA abundance (4.5 h post-induction vs induction); higher = less antimicrobial activity (less host growth inhibition). As to conditions: time post-induction: 4.5 h; library: site-saturation at positions 5, 18, 19, 20.
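Also: peptides expressed intracellularly from a pBAD plasmid library in pooled LB shake-flask culture, induced with 0.3% L-arabinose, DNA abundance read by NGS, three biological replicates, DESeq2 with apeglm shrinkage.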

As for RRIRFRPPRLPRPRPRPGVHPRP, the “shrunken log2 fold change” value was -0.0827.

Turning to RRIRQRPPRLPRPRPRPHAAPRP, the “shrunken log2 fold change” value was determined as 0.465.

On to RRIRARPPRLPRPRPRPEHIPRP, for which the “shrunken log2 fold change” value was -0.185.

As for RRIRNRPPRLPRPRPRPIREPRP, the “shrunken log2 fold change” value was -0.0204.

Turning to RRIRYRPPRLPRPRPRPSWSPRP, the “shrunken log2 fold change” value is -0.179.

Take RRIRVRPPRLPRPRPRPIEWPRP: the “shrunken log2 fold change” value is -0.000773.

As for RRIRLRPPRLPRPRPRPHKFPRP, the “shrunken log2 fold change” value is -0.138.

For RRIRPRPPRLPRPRPRPFLCPRP, the “shrunken log2 fold change” value was -0.0669.

With RRIRQRPPRLPRPRPRPRSSPRP, the “shrunken log2 fold change” value was 0.0377.

RRIRGRPPRLPRPRPRPNWRPRP: the “shrunken log2 fold change” value amounted to 0.595.

For the sequence RRIRERPPRLPRPRPRPHLGPRP, the “shrunken log2 fold change” value is -0.0405.

With RRIRQRPPRLPRPRPRPHRTPRP, the “shrunken log2 fold change” value was -0.0723.

Regarding RRIRIRPPRLPRPRPRPSEQPRP, the “shrunken log2 fold change” value was -0.0663.

Turning to RRIRFRPPRLPRPRPRPYYWPRP, the “shrunken log2 fold change” value is -0.485.

Regarding RRIRDRPPRLPRPRPRPGSQPRP, the “shrunken log2 fold change” value came to 0.0966.

For RRIRDRPPRLPRPRPRPNEEPRP, the “shrunken log2 fold change” value is -0.019.

For the sequence RRIRKRPPRLPRPRPRPQVSPRP, the “shrunken log2 fold change” value was -0.0595.

Regarding RRIRNRPPRLPRPRPRPGSNPRP, the “shrunken log2 fold change” value was -0.0081.

With RRIRDRPPRLPRPRPRPNYIPRP, the “shrunken log2 fold change” value is -1.03.

As to RRIRPRPPRLPRPRPRPHPTPRP, the “shrunken log2 fold change” value was found to be 0.17.

With RRIRLRPPRLPRPRPRPSSVPRP, the “shrunken log2 fold change” value came out at 0.0713.

Turning to RRIRGRPPRLPRPRPRPGLNPRP, the “shrunken log2 fold change” value is 4.08.

With RRIRWRPPRLPRPRPRPWFEPRP, the “shrunken log2 fold change” value is -0.0354.

Regarding RRIRSRPPRLPRPRPRPVAIPRP, the “shrunken log2 fold change” value is -0.28.

In the case of RRIRQRPPRLPRPRPRPMFRPRP, the “shrunken log2 fold change” value is -0.0146.

On to RRIRHRPPRLPRPRPRPQTRPRP, for which the “shrunken log2 fold change” value was -0.148.

Turning to RRIRPRPPRLPRPRPRPLWYPRP, the “shrunken log2 fold change” value was -0.496.

Consider RRIRIRPPRLPRPRPRPYSSPRP, for which the “shrunken log2 fold change” value was -0.239.

For the sequence RRIRPRPPRLPRPRPRPSISPRP, the “shrunken log2 fold change” value is -0.37.

RRIRHRPPRLPRPRPRPKWQPRP: the “shrunken log2 fold change” value came to 0.0671.

Regarding RRIRPRPPRLPRPRPRPVVIPRP, the “shrunken log2 fold change” value is -0.191.

With RRIRPRPPRLPRPRPRPEAGPRP, the “shrunken log2 fold change” value is 0.566.

As for RRIRERPPRLPRPRPRPTSIPRP, the “shrunken log2 fold change” value was -0.19.

Regarding RRIRIRPPRLPRPRPRPFNQPRP, the “shrunken log2 fold change” value is -0.977.

Turning to RRIRARPPRLPRPRPRPSAMPRP, the “shrunken log2 fold change” value was determined as 0.38.

Consider RRIRSRPPRLPRPRPRPKHNPRP, for which the “shrunken log2 fold change” value is -0.286.

For RRIRKRPPRLPRPRPRPMAHPRP, the “shrunken log2 fold change” value was -0.000911.

For RRIRSRPPRLPRPRPRPYDYPRP, the “shrunken log2 fold change” value is -0.305.

On to RRIRNRPPRLPRPRPRPGCWPRP, for which the “shrunken log2 fold change” value was 0.55.

Regarding RRIRCRPPRLPRPRPRPCVFPRP, the “shrunken log2 fold change” value was -0.0388.

RRIRERPPRLPRPRPRPIKHPRP: the “shrunken log2 fold change” value is -0.967.

Consider RRIRQRPPRLPRPRPRPCTFPRP, for which the “shrunken log2 fold change” value was -0.121.

RRIRVRPPRLPRPRPRPPKYPRP: the “shrunken log2 fold change” value is -0.416.

Turning to RRIRKRPPRLPRPRPRPPNFPRP, the “shrunken log2 fold change” value stood at 0.0909.

With RRIRYRPPRLPRPRPRPCFTPRP, the “shrunken log2 fold change” value was -0.941.

Turning to RRIRPRPPRLPRPRPRPTELPRP, the “shrunken log2 fold change” value was -0.126.

Turning to RRIRVRPPRLPRPRPRPHCQPRP, the “shrunken log2 fold change” value is -0.401.

As for RRIRRRPPRLPRPRPRPTTRPRP, the “shrunken log2 fold change” value came to 0.941.

For the sequence RRIRNRPPRLPRPRPRPDNRPRP, the “shrunken log2 fold change” value was -0.0135.

As to RRIRERPPRLPRPRPRPIMTPRP, the “shrunken log2 fold change” value is -0.714.

Consider RRIRDRPPRLPRPRPRPKRDPRP, for which the “shrunken log2 fold change” value amounted to 0.145.

As for RRIRRRPPRLPRPRPRPVCAPRP, the “shrunken log2 fold change” value was found to be 0.547.

With RRIRQRPPRLPRPRPRPPDRPRP, the “shrunken log2 fold change” value came to 0.0477.

Turning to RRIRPRPPRLPRPRPRPQRSPRP, the “shrunken log2 fold change” value was found to be 0.265.

Turning to RRIRHRPPRLPRPRPRPNDVPRP, the “shrunken log2 fold change” value is -0.0131.

Regarding RRIRNRPPRLPRPRPRPVPTPRP, the “shrunken log2 fold change” value amounted to 0.288.

RRIRMRPPRLPRPRPRPEGRPRP: the “shrunken log2 fold change” value is 3.21.

As for RRIRLRPPRLPRPRPRPEESPRP, the “shrunken log2 fold change” value was 0.012.

Consider RRIRKRPPRLPRPRPRPLRYPRP, for which the “shrunken log2 fold change” value stood at 0.227.

Consider RRIRERPPRLPRPRPRPIGNPRP, for which the “shrunken log2 fold change” value was -0.134.

On to RRIRSRPPRLPRPRPRPTDHPRP, for which the “shrunken log2 fold change” value is -0.339.

Turning to RRIRVRPPRLPRPRPRPLAEPRP, the “shrunken log2 fold change” value was 0.433.

For RRIRYRPPRLPRPRPRPNGLPRP, the “shrunken log2 fold change” value is -0.0845.

Regarding RRIRCRPPRLPRPRPRPCYNPRP, the “shrunken log2 fold change” value is -0.837.

Turning to RRIRARPPRLPRPRPRPRVIPRP, the “shrunken log2 fold change” value is -0.0156.

RRIRYRPPRLPRPRPRPHEGPRP: the “shrunken log2 fold change” value is -0.199.

With RRIRERPPRLPRPRPRPSVMPRP, the “shrunken log2 fold change” value was -0.175.

As to RRIRWRPPRLPRPRPRPASDPRP, the “shrunken log2 fold change” value was found to be 0.342.

On to RRIRPRPPRLPRPRPRPLMGPRP, for which the “shrunken log2 fold change” value is -0.0395.

As to RRIRIRPPRLPRPRPRPYWMPRP, the “shrunken log2 fold change” value was -0.379.

In the case of RRIRHRPPRLPRPRPRPTVNPRP, the “shrunken log2 fold change” value was -0.144.

RRIRVRPPRLPRPRPRPDHCPRP: the “shrunken log2 fold change” value was -0.146.

For RRIRHRPPRLPRPRPRPLHMPRP, the “shrunken log2 fold change” value is -0.0732.

With RRIRMRPPRLPRPRPRPSEMPRP, the “shrunken log2 fold change” value was 0.185.

For RRIRQRPPRLPRPRPRPMVDPRP, the “shrunken log2 fold change” value was -0.00399.

As for RRIRERPPRLPRPRPRPGQHPRP, the “shrunken log2 fold change” value was -0.242.

As for RRIRKRPPRLPRPRPRPWDNPRP, the “shrunken log2 fold change” value is 0.0448.

In the case of RRIRSRPPRLPRPRPRPYFLPRP, the “shrunken log2 fold change” value was -0.885.

RRIRTRPPRLPRPRPRPPMAPRP: the “shrunken log2 fold change” value was 0.176.

With RRIRVRPPRLPRPRPRPQYEPRP, the “shrunken log2 fold change” value is -0.174.

As to RRIRLRPPRLPRPRPRPGVPPRP, the “shrunken log2 fold change” value is 0.0447.

As to RRIRKRPPRLPRPRPRPESDPRP, the “shrunken log2 fold change” value is 0.262.

On to RRIRFRPPRLPRPRPRPTWTPRP, for which the “shrunken log2 fold change” value is -0.11.

Consider RRIRQRPPRLPRPRPRPFMIPRP, for which the “shrunken log2 fold change” value amounted to 0.0993.

Regarding RRIRTRPPRLPRPRPRPIISPRP, the “shrunken log2 fold change” value is -0.0891.

Take RRIRVRPPRLPRPRPRPFADPRP: the “shrunken log2 fold change” value is -0.0225.

As to RRIRHRPPRLPRPRPRPCTFPRP, the “shrunken log2 fold change” value was -0.456.

For RRIRMRPPRLPRPRPRPWFQPRP, the “shrunken log2 fold change” value was 0.134.

Turning to RRIRYRPPRLPRPRPRPGRCPRP, the “shrunken log2 fold change” value is -0.102.

Take RRIRARPPRLPRPRPRPRRKPRP: the “shrunken log2 fold change” value worked out at 0.644.

As for RRIRTRPPRLPRPRPRPDSYPRP, the “shrunken log2 fold change” value is -0.0896.

With RRIRQRPPRLPRPRPRPYLLPRP, the “shrunken log2 fold change” value is -0.0483.

As for RRIRNRPPRLPRPRPRPIAHPRP, the “shrunken log2 fold change” value is -0.0737.

With RRIRRRPPRLPRPRPRPNDMPRP, the “shrunken log2 fold change” value turned out to be 0.13.

On to RRIRDRPPRLPRPRPRPDSWPRP, for which the “shrunken log2 fold change” value stood at 0.0194.

With RRIRHRPPRLPRPRPRPLEYPRP, the “shrunken log2 fold change” value is -0.168.

Take RRIRPRPPRLPRPRPRPFWWPRP: the “shrunken log2 fold change” value was 0.55.

For the sequence RRIRLRPPRLPRPRPRPQHCPRP, the “shrunken log2 fold change” value was -0.0642.

For RRIRARPPRLPRPRPRPEACPRP, the “shrunken log2 fold change” value is 1.24.

In the case of RRIRFRPPRLPRPRPRPAWPPRP, the “shrunken log2 fold change” value came to 0.268.

Take RRIRFRPPRLPRPRPRPFEKPRP: the “shrunken log2 fold change” value was -0.0749.

For the sequence RRIRLRPPRLPRPRPRPVDWPRP, the “shrunken log2 fold change” value is 0.252.

For the sequence RRIRMRPPRLPRPRPRPWMTPRP, the “shrunken log2 fold change” value was 0.0698.

Take RRIRLRPPRLPRPRPRPWDRPRP: the “shrunken log2 fold change” value was -0.0145.

For RRIRFRPPRLPRPRPRPEYPPRP, the “shrunken log2 fold change” value is -0.617.

As for RRIRPRPPRLPRPRPRPADFPRP, the “shrunken log2 fold change” value is -0.00303.

Regarding RRIRTRPPRLPRPRPRPLVMPRP, the “shrunken log2 fold change” value is -0.0423.

Take RRIRWRPPRLPRPRPRPNLRPRP: the “shrunken log2 fold change” value turned out to be 0.174.

As to RRIRYRPPRLPRPRPRPPRDPRP, the “shrunken log2 fold change” value was found to be 0.102.

Turning to RRIRSRPPRLPRPRPRPWNRPRP, the “shrunken log2 fold change” value is -0.125.

On to RRIRERPPRLPRPRPRPFCWPRP, for which the “shrunken log2 fold change” value amounted to 0.0996.

RRIRCRPPRLPRPRPRPINKPRP: the “shrunken log2 fold change” value is -1.19.

In the case of RRIRSRPPRLPRPRPRPACDPRP, the “shrunken log2 fold change” value is 0.119.

Take RRIRHRPPRLPRPRPRPLSIPRP: the “shrunken log2 fold change” value is -0.326.

With RRIRNRPPRLPRPRPRPPWYPRP, the “shrunken log2 fold change” value was -0.224.

Consider RRIRDRPPRLPRPRPRPVYMPRP, for which the “shrunken log2 fold change” value is -0.506.

With RRIRCRPPRLPRPRPRPLVWPRP, the “shrunken log2 fold change” value came to 0.207.

In the case of RRIRRRPPRLPRPRPRPPGDPRP, the “shrunken log2 fold change” value was found to be 1.06.

With RRIRIRPPRLPRPRPRPLWGPRP, the “shrunken log2 fold change” value amounted to 0.0579.

As for RRIRFRPPRLPRPRPRPVGNPRP, the “shrunken log2 fold change” value is 0.294.

For RRIRDRPPRLPRPRPRPALTPRP, the “shrunken log2 fold change” value was found to be 0.468.

Take RRIRMRPPRLPRPRPRPRKDPRP: the “shrunken log2 fold change” value was found to be 0.61.

As to RRIRYRPPRLPRPRPRPVETPRP, the “shrunken log2 fold change” value was -0.0299.

Take RRIRIRPPRLPRPRPRPIQFPRP: the “shrunken log2 fold change” value was -0.048.

On to RRIRTRPPRLPRPRPRPIACPRP, for which the “shrunken log2 fold change” value was -0.0974.

These data come from the supplement of paper PMC9112550, “Optimization of the antimicrobial peptide Bac7 by deep mutational scanning” (BMC Biology, 2022).
